The results in this text go back to patent US20230085439A1.

The term Kd denotes the constant that tells how readily two partners part at equilibrium. The low end stands for higher affinity, the high end for lower affinity. For orientation: koff means the rate constant with which the complex falls apart. A high value points to a short-lived complex. A word on the kon: it is a measure of how fast the partners come together.

For assay [1], the target named is hMPV B2 F (human metapneumovirus).
The target of assay [2] is hMPV 130-BV (human metapneumovirus). Kind of assay: BLI, Fab in solution, hMPV 130-BV on anti-penta-HIS sensors. Background: Biolayer interferometry detects binding as a change in optical thickness at a sensor tip.
Assay [3] has the same target. Kind of assay: biolayer interferometry, hMPV 130-BV on anti-penta-HIS biosensors; unit inferred.
Assay [4] addresses hMPV B2 F (human metapneumovirus). Kind of assay: BLI, Fab in solution, His-tagged hMPV B2 F on anti-penta-HIS sensors.

B1: MPV196 Fab (Fab, V domains shown)
VH: QVQLQQWGAGLLKPSETLSLTCAVYGGSFSGYSWTWIRQPPGKGLEWIGEINHSGSTNYNPSLKSRVTISIDTSRNQFSLKLISVTAADTAVYYCARGVRGGYNLWHFDVWGQGTLVTVSS
VL: SYELSQSPSVSVSPGQTARITCSGDKLGNKYASWYQQKPGQSPVLVIYQDDKRPSGIPERFSGSNSGNTATLTIGGTQAMDEADYSCQAWDGRTAVVFGGGTKLTVL
Regarding B1, in assay [1], the Kd is 7.3 nM, the koff came out at 0.003 s⁻¹ and the kon was 410000 M⁻¹ s⁻¹.

B2: MPV458 Fab (Fab, V domains shown)
VH: QGKLVESGGGVIQPGRSLRLSCAASGFDFSRYGLHWVRQAPGKGLEWVAVIVYAGSNKYYADSVKGRFTISKDNSKNTMHLQMSDLRTEDTAVYYCARDQAFDLWGQGTMVTVSS
VL: DIQMTQSPASLSASVGDRVTITCQASQGISRSVNWYQQKPGKAPKLLIFDASHLERGVPSRFSGSGYGTDFTFTISSLQPEDIATYYCQQYDNLRISFGQGTRLEIK
Turning to B2, the KD difference in logs against 101F Fab in assay [2] is 3 logs. Moreover, the Kd in assay [3] is 0.075 nM.

B3: MPV364 Fab (Fab, V domains shown)
VH: QVQLVQSGAEVKKPGASVKVSCKASGYTFTHDSIHWVRQAPGQRLEWMGWINVGNGDTKSSQKFQDRLTITRDTSANTAYMEVRSLKYEDTAMYFCARVDQYCIGGVCYGGKNWFDPWGQGTLVTVSS
VL: SYELNQPPSVSVAPGQTAMITCGGYYVGVKSLHWYQQKAGQAPVLVVHDDSDRPSGIPERFSGSKSGDTATLIISRVEAGDEADYYCQVWDRDSDHPYVFGTGTTVTVL
In assay [1], B3 registered a Kd of 70 nM, a koff of 0.0038 s⁻¹ and a kon of 61000 M⁻¹ s⁻¹. In assay [4], this molecule returned a fold KD against MPV196 and MPV314 of 10 fold.

B4: MPV314 Fab (Fab, V domains shown)
VH: QVQLVQSGGGVVQPGRSLRLSCAASGFSFSDYGMDWVRQAPGKGLEWVAVISYDGSNQYYADSVKGRFTVSRDNSKNTVYLQMNSLRAEDTAVYFCAKDESRRYYYSSGIHSHWGQGTLVTVSS
VL: DIVMTQSPATLSVSPGERATLSCRASQSVSRNLAWYQQKPGQAPRLLIFGASTRATGIPARFSGSASGTEFTLTISSLQSEDFAVYYCHQYNYWPPGTFGQGTRLEIK
In assay [1], B4 displayed a Kd of 4.4 nM, a koff of 0.0027 s⁻¹ and a kon of 630000 M⁻¹ s⁻¹.
